Target: T1, Gli2-ZF-SNAP (human), P10070
T1 chain: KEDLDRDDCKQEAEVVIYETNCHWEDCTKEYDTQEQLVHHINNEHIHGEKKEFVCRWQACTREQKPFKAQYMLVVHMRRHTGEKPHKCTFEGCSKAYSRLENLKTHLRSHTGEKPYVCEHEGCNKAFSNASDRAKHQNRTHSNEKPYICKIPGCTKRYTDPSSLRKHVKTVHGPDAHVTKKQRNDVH
Test: TIRF microscopy; 100 nM Gli2-ZF-SNAP-Alexa647 with 100 nM kinesin on microtubules
Details: remark: other sources report otherwise

- fold Gli2-ZF Alexa-647 intensity on microtubules over Gli alone: 3 fold
B1: Kif7-MM (monomeric Kif7 motor domain, 1-386aa), Q2M1P5 1-386 (protein)
chain: MGLEAQRLPGAEEAPVRVALRVRPLLPKELLHGHQSCLQVEPGLGRVTLGRDRHFGFHVVLAEDAGQEAVYQACVQPLLEAFFEGFNATVFAYGQTGSGKTYTMGEASVASLLEDEQGIVPRAMAEAFKLIDENDLLDCLVHVSYLEVYKEEFRDLLEVGTASRDIQLREDERGNVVLCGVKEVDVEGLDEVLSLLEMGNAARHTGATHLNHLSSRSHTVFTVTLEQRGRAPSRLPRPAPGQLLVSKFHFVDLAGSERVLKTGSTGERLKESIQINSSLLALGNVISALGDPQRRGSHIPYRDSKITRILKDSLGGNAKTVMIACVSPSSSDFDETLNTLNYASRAQNIRNRATVNWRPEAERPPEETASGARGPPRHRSETRIIH
modifications: here or on the partner: Alexa 647 dye on the SNAP tag in the TIRF assays

Source: patent US20230374088A1
